Measurements as given in publication PMC3395618.

Biological target: HLA-Cw*0102 (human (endogenous in T2))

Row | Molecule | HLA-Cw*0102 expression on peptide-pulsed T2 cells (antibody DT9, flow cytometry) as compared to non-peptide pulsed T2 cells [fold]
1 | p24 Gag146-155 (from UniProt P04591 146-155) (peptide) | > 5
2 | p24 Gag162-171 (from UniProt P04591 162-171) (peptide) | > 5
3 | p24 Gag164-173 (from UniProt P04591 164-173) (peptide) | > 5
4 | p24 Gag176-185 (from UniProt P04591 176-185) (peptide) | > 5
5 | p24 Gag177-186 (from UniProt P04591 177-186) (peptide) | > 5
6 | SDIAGTTSTL [p24 Gag234-243 (…)] | > 5
7 | LKALGPAATL [p24 Gag334-343 (…)] | > 5
8 | VIPMFSALSE [p24 Gag168-177 (…)] | > 5
9 | AAEWDRLHPV [p24 Gag209-218 (…)] | > 5
